T1: human CXCL1 protein (human, UniProt P09341 35-107)
T1 sequence: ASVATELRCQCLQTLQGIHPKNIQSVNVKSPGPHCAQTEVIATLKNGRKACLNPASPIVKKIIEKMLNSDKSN


How the values were obtained:
[1] = molecular target: T1, human CXCL1 protein; assay: cell-based or functional assay
[2] = molecular target: T1, human CXCL1 protein; assay: antigen-immobilized ELISA, HuCXCL1 on the plate, absorbance (lower right panel)
[3] = molecular target: T1, human CXCL1 protein; assay: antigen-immobilized ELISA, HuCXCL1 on the plate, absorbance (upper right panel; chimeric label printed mh4A-7H10, taken as the 4A-2F7 panel)
[4] = molecular target: T1, human CXCL1 protein; assay: antigen-immobilized ELISA, HuCXCL1 on the plate, absorbance (upper right panel; label printed mh4A-7H10, taken as the 4A-2F7 panel)
[5] = molecular target: T1, human CXCL1 protein; assay: antigen-immobilized ELISA, HuCXCL1 on the plate, absorbance (lower left panel)

HuCXCL1 neutralizing activity EC50 (nM), Ca^2+ Flux assay [1] [nM]	EC50 (read off the curve) [3] [µg/mL]	Binder	other results
5.73	–	028-8-12 (antibody, V domains shown, Unmodified human antibody obtained by the human ADLib technique; also called ADLib#028-08-12; ADLib #028-8-12) VH: EVQLLESGGGLVQPGGSLRLSCAASGFTFSELSMSWVRQAPGKGLEWVSAISGSGGSTYYADSVKGRFTISRDNSKNTLYLQMNSLRAEDTAVYYCAREGGRLEPYYYYYAMDVWGQGTPVTVSS VL: DIQMTQSPSSLSASVGDRVTITCRASQSISDNLHWYQQKPGKAPKLLIYDASNLESGVPSRFSGSGSGTDFTLTINSLQPEDFATYYCQQYYSTPLTFGQGTKLEIK	EC50 (read off the curve) [2]: ~0.04 µg/mL
–	–	ADLib#028-8-12_VH1/VL1 (antibody, V domains shown, Amino acid-modified human antibody; also called modified human antibody 028-8-12) VH: EVQLLESGGGLVQPGGSLRLSCAASGFTFSELSMSWVRQAPGKGLEWVSAISGSGGSTYYASSVKGRFTISRDNSKNTLYLQMNSLRAEDTAVYYCAREGGRLEPYYYYYAMDVWGQGTPVTVSS VL: DIQMTQSPSSLSASVGDRVTITCRASQSISDNLHWYQQKPGKAPKLLIYDASNLESGVPSRFSGSGSGTDFTLTISSLQPEDFATYYCQQYYSTPLTFGQGTKLEIK	EC50 (read off the curve) [2]: ~0.04 µg/mL
6.24	–	1A-7H10 (antibody, V domains shown) VH: QVQLKESGPVLVAPSQSLSITCSVSGFSSTTYGVHWVRQPPGQGLEWLGVIWAGGSTNYNSALMSRLSISKDNSKSQVFLKMNSLQTDDTAMYYCATQYHYPFAYWGQGTLVTVSA VL: NIVMTQSPKSMSMSVGERVTLSCKASENVGIYVSWYQQKPEQSPKLMIYGASNRNTGVPDRFTGSGSATDFTLTISSVQAEDLADYYCGQSYSYPLTFGAGTKLELK	–
–	~0.02	Hu4A-2F7 VH1/VL1 (antibody, V domains shown) VH: QVTLKESGPALVKPTQTLTLTCTFSGFSLSTSGMGVDWIRQPPGKALEWLAHIWWDDDKYYNPSLKSQLTISKDTSKNQVVLTMTNMDPVDTATYYCARSYGYDMDYYAMDYWGQGTTVTVSS VL: DIQMTQSPSSLSASVGDRVTITCRASQEISGYLSWLQQKPGKAPKRLIYAASTLSSGVPSRFSGSGSGTDFTLTISSLQPEDFATYYCLQYASYPPWTFGGGTKVEIK	–
–	~0.02	Hu4A-2F7 VH2/VL1 (antibody, V domains shown, Humanized antibody) VH: QVTLKESGPALVKPTQTLTLTCTFSGFSLSTSGMGVDWIRQPPGKGLEWLAHIWWDDDKYYNPSLKSQLTISKDTSKNQVVLTMTNMDPVDTATYYCARSYGYDMDYYAMDYWGQGTTVTVSS VL: DIQMTQSPSSLSASVGDRVTITCRASQEISGYLSWLQQKPGKAPKRLIYAASTLSSGVPSRFSGSGSGTDFTLTISSLQPEDFATYYCLQYASYPPWTFGGGTKVEIK	–
–	~0.02	Hu4A-2F7 VH1/VL2 (antibody, V domains shown, Humanized antibody) VH: QVTLKESGPALVKPTQTLTLTCTFSGFSLSTSGMGVDWIRQPPGKALEWLAHIWWDDDKYYNPSLKSQLTISKDTSKNQVVLTMTNMDPVDTATYYCARSYGYDMDYYAMDYWGQGTTVTVSS VL: DIQMTQSPSSLSASVGDRVTITCRASQEISGYLSWLQQKPGKAPKRLIYAASTLSSGVPSRFSGSGSGTDYTLTISSLQPEDFATYYCLQYASYPPWTFGGGTKVEIK	–
–	~0.02	Hu4A-2F7 VH2/VL2 (antibody, V domains shown, Humanized antibody) VH: QVTLKESGPALVKPTQTLTLTCTFSGFSLSTSGMGVDWIRQPPGKGLEWLAHIWWDDDKYYNPSLKSQLTISKDTSKNQVVLTMTNMDPVDTATYYCARSYGYDMDYYAMDYWGQGTTVTVSS VL: DIQMTQSPSSLSASVGDRVTITCRASQEISGYLSWLQQKPGKAPKRLIYAASTLSSGVPSRFSGSGSGTDYTLTISSLQPEDFATYYCLQYASYPPWTFGGGTKVEIK	–
4.8	–	4A-2F7 (antibody, V domains shown) VH: QVTLKESGPGILKPSQTLSLTCSFSGFSLSTSGMGVDWIRQPSGKGLEWLAHIWWDDDKYYNPSLKSQLTISKDTSRNQVFLKITSVDTADTATYYCARSYGYDMDYYAMDYWGQGTSVTVSS VL: DIQMTQSPSSLSASLGERVSLTCRASQEISGYLSWLQQKPDGTIKRLIYAASTLDSGVPKRFSGSRSGSDYSLTISSLESEDFADYYCLQYASYPPWTFGGGTKLEIK	–
–	–	mh4A-2F7_VH/VL1 (antibody, V domains shown) VH: QVTLKESGPGILKPSQTLSLTCSFSGFSLSTSGMGVDWIRQPSGKGLEWLAHIWWDDDKYYNPSLKSQLTISKDTSRNQVFLKITSVDTADTATYYCARSYGYDMDYYAMDYWGQGTSVTVSS VL: DIQMTQSPSSLSASLGERVSLTCRASQEISGYLSWLQQKPDGTIKRLIYAASTLSSGVPKRFSGSRSGSDYSLTISSLESEDFADYYCLQYASYPPWTFGGGTKLEIK	EC50 (read off the curve) [4]: ~0.02 µg/mL
3.96	–	5A-5E11 (antibody, V domains shown) VH: QVQLQQSGAELVRPGSSVKISCKASGYAFSDYWMNWVKQRPGQGLEWIGQIYPGDGDTNYNGKFKGKGTLTADKSSSTAYMQLNSLTSEDSAVYFCARERDYDVAMDYWGQGTSVTVSS VL: DIQMTQSPSSLSASLGGKVTITCKASQDINKYIAWFQHKPGKGPRLVIHYTSILQPGIPSRFSGVGSGRDYSFSIRNLEPEDIATYYCLQYDNLPWTFGGGTKLEIK	–
–	–	Hu5A-5E11 VH1/VL2 (antibody, V domains shown, Humanized antibody) VH: QVQLVQSGAEVKKPGSSVKVSCKASGYAFSDYWMNWVRQAPGQGLEWIGQIYPGSGDTNYNAKFKGKGTITADKSTSTAYMELSSLRSEDTAVYYCARERDYDVAMDYWGQGTTVTVSS VL: DIQMTQSPSSLSASVGDRVTITCKASQDINKYIAWFQQKPGKAPKLVIHYTSILQPGVPSRFSGVGSGTDYTFTISSLQPEDIATYYCLQYDNLPWTFGGGTKVEIK	EC50 (read off the curve) [5]: ~0.02 µg/mL
–	–	Hu5A-5E11 VH2/VL2 (antibody, V domains shown, Humanized antibody) VH: QVQLVQSGAEVKKPGSSVKVSCKASGYAFSDYWMNWVRQAPGQGLEWIGQIYPGSGDTNYNAKFKGKGTLTADKSTSTAYMELSSLRSEDTAVYYCARERDYDVAMDYWGQGTTVTVSS VL: DIQMTQSPSSLSASVGDRVTITCKASQDINKYIAWFQQKPGKAPKLVIHYTSILQPGVPSRFSGVGSGTDYTFTISSLQPEDIATYYCLQYDNLPWTFGGGTKVEIK	EC50 (read off the curve) [5]: ~0.02 µg/mL
–	–	Hu5A-5E11 VH2/VL1 (antibody, V domains shown, Humanized antibody) VH: QVQLVQSGAEVKKPGSSVKVSCKASGYAFSDYWMNWVRQAPGQGLEWIGQIYPGSGDTNYNAKFKGKGTLTADKSTSTAYMELSSLRSEDTAVYYCARERDYDVAMDYWGQGTTVTVSS VL: DIQMTQSPSSLSASVGDRVTITCKASQDINKYIAWFQQKPGKAPKLVIHYTSILQPGVPSRFSGSGSGTDYTFTISSLQPEDIATYYCLQYDNLPWTFGGGTKVEIK	EC50 (read off the curve) [5]: ~0.02 µg/mL
